Measurements reported in the nanobody polyreactivity screen of Harvey et al. (2022).

Assay: yeast display, Sf9 membrane polyspecificity reagent, FACS + sequencing; frameworks hold sequencing errors
Procedure, shortened: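 Sorting gates, low and high (top ~1%), were placed on anti-HA fluorescence to track expression and on streptavidin fluorescence to track reagent binding. A clone's polyreactivity label is taken from the gate it came out of. The reagent was 10% biotinylated, detergent-solubilized Sf9 membrane, applied for 1 hour at 4 °C to galactose-induced yeast display cells.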

Row | Sequence | polyreactivity (PSR sort gate)
1 | QVQLQESGGGLVHAGGSLRLSCAASGTISFINMMGWYRQAPGRERELVASINFGANTNYADSVKGRFTISRDNAKNTVYLQMNSLKPEDTAVYYCAVYDFDAYTLYYWGQGTLVTVSS | high polyreactivity
2 | QVQLQESGGGLVHAGGSLRLSCAASVTISFINMMGWYRQAPGRERELDASINFGANTNYADSVKGRFTISRDNAKNSVYLQMNSLKPEDTAVYYCAVYDFDAYTLYYWGQGTLVTVSS | high polyreactivity
3 | QVQLQESGGGLVLAGGSLRLSCAESGYISWSFTMGWYRKAPGKEREFVAGITYGGITYYADSVKGRFTISRDNAKNTVYLQMNSLKPEDTAVYYCAAPQTYPYVYVYWGQGTQVTVSS | high polyreactivity
4 | QVQLQESGGGLVLAGGSLRLSCSASGNISVYGSMGWYRQAPGKEREFVATIDPGTNTNYADSVKDRFTISRDNAKNTVYLQMNSLKPEDTAVYYGAVEAGSDWPYPYWGQGTQVTVSS | low polyreactivity
5 | QVQLQESGGGLVLAGGSLRLSCSASGNISVYGSMGWYRQAPGKEREFVATIDPGTNTNYADSVKDRFTISRDNAKNTVYLQMNSLKPVDTAVYFCAVEAGSDWPYRYWGQGTQVTVSS | low polyreactivity
6 | QVQLQESGGGLVLAGGSLRLSCSASGNISVYGSMGWYRQAPGKEREFVATIDPGTNTNYADSVKDRFTISRDNAKNTVYLQMNTRKPEDTAVYYCAVEAGSDWPYRYWGQGTEVTVSS | low polyreactivity
7 | QVQLQESGGGLVLAGGSLRLSSAATGSISAQAYMGWDRQAPGKEREHVAGINYGDNTNYADSVKGRFTISRDNEHSVSADEQPESGRYRCVLLRGFLELFYYYIYWGQGTQVTVSS | high polyreactivity
8 | QVQLQESGGGLVQADGSLRLSCAASGSMFGYYYMGWYRQAPGKDRELVATIHICGITNYADSVKGRFTISRDNAKNTVYLQMNSLKPDDTAVYYCAADEYAQRDLGYWGQGTQVTVSS | low polyreactivity
9 | QVQLQESGGGLVQAGCSLRLSCAASGTISVHASMGWYRQAPGKERELVAGITDGANTYYADSVKGRFTISRDNSKNTVYLQMNSLKPEDTAVYYCAAYYGTEVHFTYWGQGTQVTVSS | low polyreactivity
10 | QVQLQESGGGLVQAGGCLRLSCAASGTIFDPDYMVWYHQAPGKERELVASISLGRMTYYADSVKGRFTINRDNAKNTVYVQMNTLKPEDTAVYYCAVRVETIYYYSYWGQGTQVTVSS | high polyreactivity
11 | QVQLQESGGGLVQAGGCLRLSCAASGTISTAYQMGWYRQAPGKEREFVAAIGYGAITNYADSVKGRFTISRDNAKNTVYLQMNSLKPEDTAVYYCAARRYVAGRGAYDYWGQGTQVTLSS | low polyreactivity
12 | QVQLQESGGGLVQAGGCLSCTASGTIFGQGDMGWYRQAPGKERELVATINDGASTYYADSVKGRFTISRDKAKNTVYLQKNSLKPDDTAVYYCAVCTDITTYFGYWGQGTQVTVSS | low polyreactivity
13 | QVQLQESGGGLVQAGGDLRLSCAASGKILRDYIMGWYRQASGKEREFVAGIDRGANTNYADSVKGRLTISRDNAKKTVYLQMNSLKPEDTAVYYCAVHTAIVPDFIYWGQGTQVTVSS | low polyreactivity
14 | QVQLQESGGGLVQAGGDLRLSCAASGNIFLDYIMGWYRQAPGKEREFVAGIDRGANTNYADSVKGRFTISRDNAKNTLYLQMNSLKPEDTAVYYCAVHTAIVPDFIYWGQGTEVTVSS | low polyreactivity
15 | QVQLQESGGGLVQAGGDLRLSCAASGNIFRDYIMGWYRQAPGKELEFVAGIDRGANTNYADSVKGRFTISRDNAKNTVYLQMNSLKPEDTAVYYCAVHTAIVPDFIYWGQGTQVTVSS | low polyreactivity
16 | QVQLQESGGGLVQAGGDLRLSCAASGNIFRDYIMGWYRQAPGKEREFVAGIDRGANTNYADSVKGRFTISRDNAKNTVYLQMNSLKPEDTAVYYCAVHTAIVPDFIYWGQGSQVTVSS | low polyreactivity
17 | QVQLQESGGGLVQAGGDLRLSCAASGNIFRDYIMGWYRQAPRKEREFVAGIDRGANTNYADSVKGRFTISRDNAKNTVYLLLNSLKPEDTAVYYCAVHTAIVPDFIYWGQGTQVTVSS | low polyreactivity
18 | QVQLQESGGGLVQAGGILRLSCAACGNIFPSAVMGWYRQALAKEREFVATINSGSNTYYADSVKGRFTISRDNAKNTVYLQMNSLKLEDTAVYYCAAYFKLQAWHTYWGQGTQVTVSS | low polyreactivity
19 | QVQLQESGGGLVQAGGILRLSCAASGTISDRAGMGWYREAPAKNAIGATIDRGTNTNYADSVKGRFTISRDNAKNTVYLQMNSLKREDTAVYNCAADGRYYIYLDYWGQGTQVTVSS | low polyreactivity
20 | QVQLQESGGGLVQAGGRLRLSCAASGYISTFSSEMGWYRQAPGKERELVASIAPGCTTSYADSVKGRFTISRDYAKNTEFLQMNSLKPEDTAVYYCAVDYTVPASFGYWGQGSQVTVSS | high polyreactivity
21 | QVQLQESGGGLVQAGGSLCLSCAASGTIFFDGDMGWYRQAPCKEREFVAAINPGGSAYYADSVKGRLPLAAITHTVYLQMNSLKPEDTAVYYCAAKLFDVYGYYYWGQGTHVTVSS | low polyreactivity
22 | QVQLQESGGGLVQAGGSLCMSCAASGSISDYIFMGWYRQAPGKEREFVAGIGIGGNTNYADSVKGRFTISRDNAKNTVYLQMNSLKPEDTAVYYCAANATYTDYYAYWGQGTKVTVSS | low polyreactivity

Row | Sequence | polyreactivity (PSR sort gate)
23 | QVQLQESGGGLVQAGGSLCMSCAASGSISDYIFMGWYRQAPGKEREFVAGIGIGGNTNYADSVKGRFTISRDNAKNTVYLQMNSLKPEDTAVYYCAANATYTDYYAYWGQGTQVTVSS | low polyreactivity
24 | QVQLQESGGGLVQAGGSLGCAASGNISTRSEMGWYRQAPGKEREFVATINSGGITNYADSVKGRFTISRDNAKNTVYLRMNSLKPEDTAVYYRAVYGDFSDPYDYWGQGTQVTVSS | low polyreactivity
25 | QVQLQESGGGLVQAGGSLGCAASGNISTRSEMGWYRQAPGKEREFVATINSGGITNYADSVKGRFTISRDNAKNTVYLRMNSLKPEDTAVYYRAVYGYFSDPYDYWGQGTQVTVSC | low polyreactivity
26 | QVQLQESGGGLVQAGGSLLSCAASGTISYYREMGWYRQAPGKERELVAGIGVGTITYYADSVKGRFTISRDNAKNTVYLHMNSLKPEDTAVYYCAAHIDGNDSHAYWGQGTQVTVSS | low polyreactivity
27 | QVQLQESGGGLVQAGGSLRKSCAASGSVSYQEAMGWYRQAPGKERELVATISFGANTNYADSVKGRFTISRDNAKNTVYLQMNSLKPEDTAVYYCAAESLFDDYYGYWGQGTQVTVSS | low polyreactivity
28 | QVQLQESGGGLVQAGGSLRLGCAASGNISDAGYMGWYRQAPGKEREFVAAIAAGSNTNYADSVKGRFTISRDNAINTVYLQMNSLKPEVTAVFYCAVASYARVQYEYWGQGTQVTVNS | low polyreactivity
29 | QVQLQESGGGLVQAGGSLRLICAASGTIFSARFMGWYRQAPGKERELVATITDGGNTNHADSVKGRFTISRDNAKNTVYLKMYSLKPEDAAVYYCAAGEVDNDTLLFWGQGSQVTVSS | low polyreactivity
30 | QVQLQESGGGLVQAGGSLRLPCAASGNISDAGYMGWYRQAPGKQREFVAAIAAGSNTNYADSVKGSFTISRDNAKNTVYLQMNSLKPEDTAVIFFAVASYARVQYEYWGQGTQVTVNS | low polyreactivity
31 | QVQLQESGGGLVQAGGSLRLRCAASRNISGSSDLGWYHQAPGKEREFVASITSGGTTYYADSVKGRFTISRDNAKNTVYLQMNSLKPEDTAVYYCAAESRYPFIYEYWGQGTQVTVSS | low polyreactivity
32 | QVQLQESGGGLVQAGGSLRLSCAAIGSISILQSMGWYRQAPGKERELVAGINWGATTYYADSVKGRLTTSRDYAKNTVYLQMNSLKPEDTAVYYCAVPTYYTYPLLYWGQGTQVTVSS | low polyreactivity
33 | QVQLQESGGGLVQAGGSLRLSCAARASIFKVVDMGLYRQAPAKEREFVATIGEGGNTYYADSVKGRFTISRDNAKNTVYLQMNSLKPEDTAVYFYAVVLGTSYRYTYWGQGTQVTVSS | low polyreactivity
34 | QVQLQESGGGLVQAGGSLRLSCAASGLILARNYMGWYRQAPGTERELVSGIGVGASTNYADSVKGRFTISRDNAKNTVYLQMNSLEPEDTAVYYCAVGDTVLGYHYYWGQGTQVTVSN | low polyreactivity
35 | QVQLQESGGGLVQAGGSLRLSCAASGNISSYYRMGWYRHAPGKEREFVATIAVGGTTNYADSVKGRFTISRDNAKNTVYLQMNSLKPEDTAVCFCAANCNQYTWFDYWGQGTQVPVSS | low polyreactivity
36 | QVQLQESGGGLVQAGGSLRLSCAASGNISVTGFMGWYRKAPGKERELVASIGIGGTTYYADSVKGRFSISRDNAKNTVYLQMNSLKPEDTAVYYCAARYLYYAYSYWGQGTQVTVSS | low polyreactivity
37 | QVQLQESGGGLVQAGGSLRLSCAASGNIVDADIMGWYRQAPGKERELVASITDGGSTNYADCVKGRFTISRDNAKNTVYLKMNSLKPEDTAVYYCAAIAYPDIPTYFDYDSEYFYWGQGTQVTVSS | low polyreactivity
38 | QVQLQESGGGLVQAGGSLRLSCAASGNIYDADIMGWYRQAPAKERELVTSITDGGSTNYADSVKGRFTISRDNAKNTVYLQMNSLKPEDTAVYYCAAIAYPDIPTSFDYNSDYSYWGQGTQVTVSS | low polyreactivity
39 | QVQLQESGGGLVQAGGSLRLSCAASGNIYDADIMGWYRQAPGKERELVTSITDGGSTNYADSVKGRFTISRDNAKNTVYLQMNSLKPEDTAVYYSAAIAYADIPTSFDYNSDYSYWGQGTQVTVSS | low polyreactivity
40 | QVQLQESGGGLVQAGGSLRLSCAASGNIYEADIMGWYRQAPGKERELVTSITDGGSTNYADSVKGRFTISRDNAKNTVYLQMNSLKPEDTAVYYCAAIAYPDIPTSFDYNSDYSYWGQGTQVTVSS | low polyreactivity
41 | QVQLQESGGGLVQAGGSLRLSCAASGSIFDGFNMGWYRQAPGKEREFVAAISYGASTYYADSVKGRFTVSRDNAKNSVYLQMNILKPEDTAVYYCAVVPSDGNLFSYWGQGTQVTVSS | low polyreactivity
42 | QVQLQESGGGLVQAGGSLRLSCAASGSIFDGFNMGWYRQAPGKEREFVAAISYGASTYYADSVKGRFTVSRDNAKNSVYLQMNSLKPEDTAVYYCAVYDELYHVLVYWGRGTQVTVSS | low polyreactivity
43 | QVQLQESGGGLVQAGGSLRLSCAASGSIFKGVDMGLYRQAPAKEREFVATIGEGGNTYYADSVKGRFTISRDNAKNTVYLQMNSLKPEDTAVYFYAVVLGTSYRYTYWGQGTQVTVSS | low polyreactivity
44 | QVQLQESGGGLVQAGGSLRLSCAASGSIFVSVTMGWYRQAPGKERELVASIGRGSTTNHADSVKGRFTICRDNAKNIVYLLMNSLKPEDTAVYYCAALESYGKYHGYWGQGTQVTVSS | low polyreactivity
